In publication PMC12628836, “Lactobacillus rhamnosus YQ001 binds with GII.4 human noroviruses and inhibits viral replication in zebrafish larvae” (Applied and Environmental Microbiology, 2025):

Molecular target: recombinant C2JX39 (DNA topoisomerase 4 subunit A) (Lactobacillus rhamnosus YQ001)
Experiment: ELISA; attachment factors coated at 280.0 pmol/mL in carbonate-bicarbonate buffer overnight at 4 C, blocked with 1.0% BSA; P protein (GI.1 or GII.4) 10.0 ug/mL, 1 h at 37 C; detected with anti-HuNoV monoclonal antibodies; positive when S/N >= 2.0
Settings: both partners purified

B1: GII.4 HuNoV P protein (domain or fragment)
chain: KPFTVPILTVEEMTNSRFPIPLEKLFTGPSGAFVVQPQNGRCTTDGVLLGTTQLSPVNICTFRGDVTHIAGSRNYTMNLASLNWNNYDPTEEIPAPLGTPDFVGKIQGLLTQTTKGDGSTRGHKATVYTGSAPFTPKLGSVQFSTDTENDFETHQNTKFTPVGVIQDGSTTHRNEPQQWVLPSYSGRNVHNVHLAPAVAPTFPGEQLLFFRSTMPGCSGYPNMDLDCLLPQEWVQHFYQEAAPAQSDVALLRFVNPDTGRVLFECKLHKSGYVTVAHTGQHDLVIPPNGYFRFDSWVNQFYTLAPM
- S/N ratio: 16.9
